In patent US20110262929A1 (FORERUNNER PHARMA RESEARCH, published 2011):

What was measured:
[1] = target: T1, C-terminal V5 tagged mouse HS6ST2 (mHS6ST2_ctV5), expressed in CHO DG44 cells (mouse, UniProt Q80UW0 148-612); assay: flow cytometry, antibody diluted 5-fold from 10 µg/mL in 6 steps
T1 construct: also called mHS6ST2_ctV5_CHO; mouse HS6ST2 transcript variant 2
T1 sequence: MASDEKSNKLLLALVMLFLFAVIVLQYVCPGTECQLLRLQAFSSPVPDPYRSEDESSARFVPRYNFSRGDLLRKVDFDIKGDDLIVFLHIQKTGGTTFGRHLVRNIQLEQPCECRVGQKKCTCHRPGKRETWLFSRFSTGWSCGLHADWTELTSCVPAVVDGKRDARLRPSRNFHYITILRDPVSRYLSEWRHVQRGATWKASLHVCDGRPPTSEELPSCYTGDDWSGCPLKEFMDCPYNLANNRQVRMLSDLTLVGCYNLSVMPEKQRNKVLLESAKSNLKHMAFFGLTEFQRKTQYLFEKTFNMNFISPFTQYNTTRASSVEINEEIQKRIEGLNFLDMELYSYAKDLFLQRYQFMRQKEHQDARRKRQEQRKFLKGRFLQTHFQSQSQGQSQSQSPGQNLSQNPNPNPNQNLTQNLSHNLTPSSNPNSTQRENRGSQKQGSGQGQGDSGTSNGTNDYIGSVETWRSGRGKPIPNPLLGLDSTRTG
Experimental: (§1) Binding of the anti-HS6ST2 antibodies prepared in Example 2 to mHS6ST2 was evaluated by flow cytometry. The cells used were mHS6ST2_ctV5_CHO, HS6ST2_N-short_ctV5_CHO as a positive control, and the CHO DG44 cell line as a negative control.
[…] After reaction on ice for 1 hour, the cells were washed with FACS buffer. Then, an FITC-labeled anti-mouse antibody (Goat F(ab′)₂ Fragment Anti-mouse IgG (H+L)-FITC, Beckman Coulter) was added as a secondary antibody, and the mixture was reacted on ice for 1 hour. The cells were washed with FACS buffer, and then suspended in FACS buffer containing 10 μg/mL propidium iodide (PI) (Sigma) and assayed by a flow cytometer (FACS Calibur, Becton Dickinson). The assay data were analyzed by CELLQuest software (Becton Dickinson), and the geo-mean of FITC fluorescent intensity was calculated for the PI-negative population of viable cells.
It was also shown that A6 and C8 equally bind to HS6ST2 and mHS6ST2.

[2] = target: T2, C-terminal V5 tagged HS6ST2_N-long (HS6ST2_N-long_ctV5), expressed in CHO DG44 cells (human, UniProt Q96MM7 1-605); assay: flow cytometry on HS6ST2_N-long_ctV5_CHO cells
T2 construct: On cells in flow cytometry; also called Q96MM7-1
T2 sequence: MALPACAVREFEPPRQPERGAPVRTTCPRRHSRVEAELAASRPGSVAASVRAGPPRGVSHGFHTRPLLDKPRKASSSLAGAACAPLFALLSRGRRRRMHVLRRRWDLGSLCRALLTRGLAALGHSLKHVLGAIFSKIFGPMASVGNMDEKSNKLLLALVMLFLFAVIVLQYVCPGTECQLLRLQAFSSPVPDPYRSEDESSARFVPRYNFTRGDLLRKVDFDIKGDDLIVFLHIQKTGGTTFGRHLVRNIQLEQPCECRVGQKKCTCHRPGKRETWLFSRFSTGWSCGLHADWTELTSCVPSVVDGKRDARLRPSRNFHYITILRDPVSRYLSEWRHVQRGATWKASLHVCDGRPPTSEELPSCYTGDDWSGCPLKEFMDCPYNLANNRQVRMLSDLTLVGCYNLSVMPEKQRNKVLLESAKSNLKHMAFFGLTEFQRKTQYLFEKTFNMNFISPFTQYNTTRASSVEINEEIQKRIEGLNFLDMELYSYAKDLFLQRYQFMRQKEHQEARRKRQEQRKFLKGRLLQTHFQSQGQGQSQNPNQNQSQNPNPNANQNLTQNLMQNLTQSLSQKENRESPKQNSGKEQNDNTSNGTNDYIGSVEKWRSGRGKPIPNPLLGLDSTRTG
Experimental: (§2) Each anti-HS6ST2 antibody or mouse IgG1 (mIgG1, BD Biosciences Pharmingen) as a negative control was added to a final concentration of 2 μg/mL into 96-well U-bottom plates (Becton Dickinson) containing 5×10⁴ cells suspended in PBS (FACS buffer) supplemented with 0.5% bovine serum albumin and 0.1% NaN₃. After reaction on ice for 1 hour, the cells were washed with FACS buffer. Then, an FITC-labeled anti-mouse antibody (Goat F(ab′)₂ Fragment Anti-mouse IgG (H+L)-FITC, Beckman Coulter) was added as a secondary antibody, and the mixture was reacted on ice for 1 hour. The cells were washed with FACS buffer, and then suspended in FACS buffer containing 10 μg/mL propidium iodide (PI) (Sigma) and assayed by a flow cytometer (FACS Calibur, Becton Dickinson). The assay data were analyzed by CELLQuest software (Becton Dickinson), and the geo-mean of FITC fluorescent intensity was calculated for the PI-negative population of viable cells.
Binding activity of the anti-HS6ST2 antibodies prepared in Example 2 to HS6ST2_N-long was evaluated by flow cytometry. The cells used were HS6ST2_N-long_ctV5_CHO cells and HS6ST2_N-short_{—} ctV5_CHO cells as a positive control, and evaluated in the same manner as in Example 3. The primary antibodies were used at a concentration of 10 μg/mL.

[3] = target: T3, C-terminal V5 tagged HS6ST2_N-short (HS6ST2_N-short_ctV5), expressed in CHO DG44 cells (human, UniProt Q96MM7 147-605); assay: flow cytometry on HS6ST2_N-short_ctV5_CHO cells, antibody 2 µg/mL
T3 construct: also called Q96MM7-2
T3 sequence: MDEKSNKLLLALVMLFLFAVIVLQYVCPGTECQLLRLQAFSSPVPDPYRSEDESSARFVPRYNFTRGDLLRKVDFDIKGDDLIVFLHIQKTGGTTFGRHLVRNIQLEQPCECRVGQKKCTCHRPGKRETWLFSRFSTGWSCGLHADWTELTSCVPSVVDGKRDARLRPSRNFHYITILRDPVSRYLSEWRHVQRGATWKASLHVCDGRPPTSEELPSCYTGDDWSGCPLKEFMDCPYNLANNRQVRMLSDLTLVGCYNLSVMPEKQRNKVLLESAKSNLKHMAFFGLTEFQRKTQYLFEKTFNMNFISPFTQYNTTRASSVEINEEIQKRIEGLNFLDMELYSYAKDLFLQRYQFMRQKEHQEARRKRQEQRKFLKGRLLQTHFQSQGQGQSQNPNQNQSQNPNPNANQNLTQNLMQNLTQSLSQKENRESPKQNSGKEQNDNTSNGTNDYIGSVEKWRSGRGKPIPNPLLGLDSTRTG
Experimental: as §1, §2

Measured: binding result

B1: anti-HS6ST2 antibody A6 (antibody, mouse IgG1, V domains shown)
VH: EVQLQQSGAELVRSGASVKLSCTASGFNIKDYYMHWVKQRPEQGLEWIGWIDPENDDTEYAPKFQGRATMTADTSSNTAYLQLSSLTSEDTAVYYCNAGYYGSGFAYWGQGTLVTVSA
VL: DIVMTQSPSSLTVTAGEKVTMRCKSSQSLLNSGNQKNYLTWYQQKPGQPPRLLIYWASIRESGVPDRFTGSGSGTDFTLTISSVQAEDLAVYYCQNDYSYPLTFGTGTKLELK
notes: also called clone A6
binds: all assays above

B2: anti-HS6ST2 antibody C8 (antibody, mouse IgG1, V domains shown)
VH: EVQLQQSGAELVRSGASVKLSCTASGFNIKDYYMHWVKQRPEQGLEWIGWIDPDNDDTEYAPKFQGKATMTADTSSNTAYLQLSSLTSEDTAVYYCNAGNGNYWFAYWGQGTLVTVSA
VL: DVVMTQTPLSLPVSLGDQASISCRSSQSLVHSNGNTYLHWNLQKPGQSPKLLIYKVSNRFSGVPDRFSGSGSGTDFTLKISRVEAEDLGVYFCSQTTLVPYTFGGGTKLEIK
notes: also called clone C8; C8-biotin
binds: all assays above
